Results from patent publication US20070054851A1.

Legend:
[1] = target: ErbB1 receptor (UniProt P00533); assay: cell-based or functional assay
[2] = target: ErbB1 receptor (EGF receptor) on HeLa 229 cells (UniProt P00533); assay: cell-based or functional assay

Chain of PEGylated betacellulin produced using the mPEG-ButyrALD-20K reagent (P35070 other isoform, or with tags, fused parts or gaps limits assumed): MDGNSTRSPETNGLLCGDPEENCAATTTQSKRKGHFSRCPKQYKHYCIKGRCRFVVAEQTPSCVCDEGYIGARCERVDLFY
Chain of PEGylated betacellulin produced using the mPEG-SMB-20K reagent (P35070 other isoform, or with tags, fused parts or gaps limits assumed): as above
Chain of UniProt P35070 (P35070 other isoform, or with tags, fused parts or gaps limits assumed): as above

Substance	activity in phospho-EGFR pY1068 ELISA on HeLa 229 cells, against unreacted betacellulin ([1]; scale: % reduction against unreacted betacellulin)	activity % (phospho-EGFR pY1068 ELISA, HeLa cells; SEC column S70; 40 nM submitted to assay) [2] [%]	activity % (phospho-EGFR pY1068 ELISA, HeLa cells; SEC column S200; 40 nM submitted to assay) [2] [%]	activity in phospho-EGFR pY1068 ELISA on HeLa 229 cells, against unreacted betacellulin (fold lower than unreacted betacellulin) [1]	ELISA activity is equivalent to [BTC] nM (phospho-EGFR pY1068 ELISA, HeLa cells; SEC column S200; 40 nM submitted to assay) [2] [nM]	ELISA activity is equivalent to [BTC] nM (phospho-EGFR pY1068 ELISA, HeLa cells; SEC column S70; 40 nM submitted to assay) [2] [nM]
PEGylated betacellulin produced using the mPEG-ButyrALD-20K reagent (from UniProt P35070 32-111) (ligand)	< 50	58	55	–	–	–
PEGylated betacellulin produced using the mPEG-SMB-20K reagent (from UniProt P35070 32-111) (ligand)	–	26	34	3	14	–
Unreacted (row label under 'PEGylation chemistry'; taken as the unreacted betacellulin fraction from the S70 size exclusion column) (from UniProt P35070 32-111) (ligand)	–	0	–	–	–	0
